Reference: the RNAGym collection of RNA variant scans (doi:10.7554/elife.80360)

B1: HDV Ribozyme (parent)
chain: GGCCGGCAUGGUCCCAGCCUCCUCGCUGGCGCCGGCUGGGCAACAUUCCGAGGGGACCGUCCCCUCGGUAAUGGCGAAUGGGACCCA

Variants of: B1
Assay: self-cleavage, relative activity (ratio to wild type); higher = more cleavage; co-transcriptional

Going from C75A G80A to U65G G74U, the self-cleavage rises from 0.12 to 0.424.

Compared with U37A C63G, G1A C66U is higher in self-cleavage: 0.17 for the first, 0.353 for the second.

First: C15A G74C
Second: G6A C86A
The self-cleavage of the first is lower: 0.185 for the first, 0.536 for the second.

Going from U27C A51C to C58G G80U, the self-cleavage falls from 0.858 to 0.0903.

First: G68C C85G
Second: U23C G40C
The self-cleavage of the first is higher: 0.733 for the first, 0.0852 for the second.

Going from A56G G81C to G52C G53C, the self-cleavage rises from 0.198 to 0.582.

First: G54A G68A
Second: C44A C48U
The self-cleavage of the first is higher: 0.895 for the first, 0.692 for the second.

Going from G55A C58U to G54U G68C, the self-cleavage falls from 1.07 to 0.496.

Compared with C19A C32G, G39C A45U is lower in self-cleavage: 0.116 for the first, 0.0475 for the second.

Going from U9C A16C to C63U A77C, the self-cleavage falls from 0.519 to 0.352.

First: U12A U27G
Second: C57A C86A
The self-cleavage of the first is lower: 0.237 for the first, 0.986 for the second.

Going from G34U U60A to C61G C85G, the self-cleavage rises from 0.0817 to 0.906.

First: U20A C61U
Second: G31U U69C
The self-cleavage of the first is lower: 0.208 for the first, 0.396 for the second.

Going from C15U G38C to G1C G25U, the self-cleavage falls from 0.17 to 0.0665.

Going from C32G C44U to U47C C63G, the self-cleavage rises from 0.0665 to 0.178.

Going from C15U C85G to G39C C61A, the self-cleavage falls from 0.831 to 0.192.

Going from C24U U27A to G10A C15G, the self-cleavage falls from 0.399 to 0.166.

Compared with G5A C86A, C30A A51C is higher in self-cleavage: 0.132 for the first, 0.612 for the second.

Going from G34A A56C to G38U A87U, the self-cleavage rises from 0.151 to 0.255.

Going from U27C G55C to C3U A56G, the self-cleavage falls from 0.847 to 0.831.

First: U60C G74A
Second: G6A C48G
The self-cleavage of the first is lower: 0.591 for the first, 0.657 for the second.

Going from G10C A42C to G80C A83G, the self-cleavage falls from 0.142 to 0.102.

Compared with G2U C64G, C13G C64U is lower in self-cleavage: 0.0791 for the first, 0.0268 for the second.

Going from G34U A42U to G53C A70G, the self-cleavage rises from 0.252 to 0.962.

First: G1A G68A
Second: A71G C85U
The self-cleavage of the first is lower: 0.101 for the first, 0.962 for the second.

Compared with C21G C66G, C22G A77U is higher in self-cleavage: 0 for the first, 0.162 for the second.

Compared with G5A G73A, G28U C62A is higher in self-cleavage: 0 for the first, 0.154 for the second.

Going from G50C C58A to C24U A71U, the self-cleavage falls from 1 to 0.587.

Compared with G2A, G52U C66G is higher in self-cleavage: 0.2 for the first, 0.472 for the second.

Going from A56C G74A to G76C G82U, the self-cleavage falls from 0.65 to 0.326.

Compared with G38A C75G, A8C C13U is higher in self-cleavage: 0.0302 for the first, 0.356 for the second.

Compared with G29A A45U, G54A G74A is higher in self-cleavage: 0.0332 for the first, 0.445 for the second.

Going from A8C G38A to U23A U72C, the self-cleavage rises from 0.0369 to 0.332.

Compared with G2U C48G, G2A G29C is lower in self-cleavage: 0.0615 for the first, 0.0292 for the second.

Going from G55U C58U to G31C C85A, the self-cleavage falls from 1.05 to 0.317.

Compared with C14A C32U, A45G C49A is higher in self-cleavage: 0.458 for the first, 0.872 for the second.

First: C13G U79G
Second: U65G C85A
The self-cleavage of the first is lower: 0.0755 for the first, 1.11 for the second.

Going from G17U C62A to C14U C32G, the self-cleavage falls from 0.429 to 0.0462.

First: U12G C86A
Second: C33U C61U
The self-cleavage of the first is lower: 0.906 for the first, 0.918 for the second.

Going from G17U A42G to A43G G80U, the self-cleavage rises from 0.0489 to 0.0916.

First: G25A C85U
Second: C4G C13G
The self-cleavage of the first is higher: 0.32 for the first, 0 for the second.

Going from C21U G82C to G31C G40U, the self-cleavage rises from 0.181 to 0.229.

Going from C26U C86A to G52U G53U, the self-cleavage falls from 0.99 to 0.733.

Going from C13A G40U to C32G G81C, the self-cleavage rises from 0.0326 to 0.0773.

First: U9C C49A
Second: G52A A70U
The self-cleavage of the first is lower: 0.703 for the first, 0.858 for the second.

Compared with C49U C75G, C30U U72C is higher in self-cleavage: 0.0723 for the first, 0.0959 for the second.

Compared with U37A G52A, G39U A45U is higher in self-cleavage: 0.145 for the first, 0.325 for the second.

Going from A77G C84U to C4G G11C, the self-cleavage falls from 0.631 to 0.

First: G6A U65A
Second: G5A A56C
The self-cleavage of the first is higher: 0.54 for the first, 0.107 for the second.

Compared with G55A C63G, C15G C75G is lower in self-cleavage: 0.632 for the first, 0.192 for the second.

First: C57U G68C
Second: C33U U60A
The self-cleavage of the first is higher: 0.85 for the first, 0.696 for the second.

Compared with C3G G59U, C26U G55U is higher in self-cleavage: 0.899 for the first, 0.929 for the second.

Compared with A71C A83C, G31C A87C is higher in self-cleavage: 0.229 for the first, 0.531 for the second.

First: C14G G55U
Second: G10A A78C
The self-cleavage of the first is higher: 0.682 for the first, 0.113 for the second.

Going from C7A G34U to G2C G81A, the self-cleavage rises from 0 to 0.0511.

First: C21A A51G
Second: G35C G76A
The self-cleavage of the first is lower: 0.0326 for the first, 0.514 for the second.

Going from C26U G28U to G74C A77C, the self-cleavage falls from 0.277 to 0.133.

Compared with G31A C33U, C7A G29C is lower in self-cleavage: 0.359 for the first, 0.0707 for the second.

Compared with C18A G39A, C15G U46C is higher in self-cleavage: 0.0739 for the first, 0.256 for the second.

First: C3G C44G
Second: C13G C49A
The self-cleavage of the first is lower: 0.0707 for the first, 0.123 for the second.

Going from C62U G68A to U12C C14G, the self-cleavage falls from 0.946 to 0.229.

Going from G35U A71U to G1U C19G, the self-cleavage rises from 0.178 to 0.348.

Compared with G11A C18A, G73A G80C is higher in self-cleavage: 0.0841 for the first, 0.165 for the second.

Going from U46C U69C to C33G C86A, the self-cleavage falls from 1.12 to 0.146.

Going from C19G G68U to U20G G55A, the self-cleavage rises from 0.119 to 0.356.

Going from C44A A45U to C4A C63A, the self-cleavage falls from 0.95 to 0.354.

Compared with U12C C14U, C15U A42C is lower in self-cleavage: 0.277 for the first, 0.161 for the second.

First: G31A G53C
Second: U27C C63G
The self-cleavage of the first is lower: 0.305 for the first, 0.639 for the second.

First: G10C C36G
Second: G40U C84U
The self-cleavage of the first is lower: 0.0831 for the first, 0.398 for the second.

Going from U12G G82U to C13U C15G, the self-cleavage falls from 0.519 to 0.356.

First: C19A C41A
Second: C63U G76A
The self-cleavage of the first is lower: 0.0268 for the first, 0.855 for the second.

Going from C22U G35A to C14A A43C, the self-cleavage falls from 0.109 to 0.0396.

Compared with G67U C75G, G59C C61G is higher in self-cleavage: 0.185 for the first, 0.927 for the second.

Going from G17A U23A to C26G C63A, the self-cleavage rises from 0.686 to 0.748.

Going from C26A G74A to U23C A42U, the self-cleavage falls from 0.573 to 0.415.

Going from U65C G81A to G17U U46A, the self-cleavage falls from 0.358 to 0.111.

Going from G11U C61G to U9A A70C, the self-cleavage rises from 0.315 to 0.767.

First: G82U A83C
Second: G11U G55C
The self-cleavage of the first is lower: 0.18 for the first, 0.35 for the second.

Going from G59A A71C to G10U U23C, the self-cleavage falls from 0.743 to 0.62.

Compared with U47C G80C, A56G C85U is higher in self-cleavage: 0.138 for the first, 1.02 for the second.

Compared with G6U A78U, C7A G54A is higher in self-cleavage: 0.107 for the first, 0.504 for the second.

First: G2U G54C
Second: C49G C58G
The self-cleavage of the first is lower: 0.0157 for the first, 0.855 for the second.

Going from G5A C26G to C4U U60C, the self-cleavage rises from 0.427 to 0.872.

For C7A G17U, the self-cleavage was 0.162.
